Measured values from the supplement of paper PMC9170038.

Test system: MS2 coat protein
Assay: apparent KD of MS2 coat protein; designed switch direction (-1 OFF switch, 1 ON switch): -1; higher = weaker reporter binding
Summary of the method: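 Designed RNA switches sharing common flanks were transcribed on Illumina chips by stalled E. coli RNA polymerase. They were titrated with SNAP-549-labelled MS2 coat protein, from 0.7 or 1.5 nM doubling to 3 µM, in Tris-HCl pH 7.5 buffer with KCl, MgCl2, BSA, DTT, tRNA and Tween-20. Titrations ran without input, with 200 uM small-molecule ligand, or with an oligonucleotide input. The apparent KD of each design is the median over its clusters, after curve-fitting of normalised cluster fluorescence.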

[1] = Eterna round: R95, input ligand: FMN 200 uM
[2] = Eterna round: R95, input ligand: microRNA oligo, concentration not stated
[3] = Eterna round: R95, input ligand: none
[4] = input ligand: microRNA oligo, concentration not stated

| Sequence | apparent KD of MS2 coat protein [1] | apparent KD of MS2 coat protein [2] | apparent KD of MS2 coat protein [3] | apparent KD of MS2 coat protein (input ligand: FMN 200 uM) | apparent KD of MS2 coat protein [4] | apparent KD of MS2 coat protein (input ligand: none) |
| --- | --- | --- | --- | --- | --- | --- |
| ACAACAAGCUUUUUGAACGUAGAACAUGCAGCUCUAGAAACAUGAGGAUCACCCAUGUAAGCCAGUUAGAUAGGUGA [JR_SV3TOV2_Sub067] (puzzle: Sensor v3, turn-off variant 2) | 76.1 nM | 69.1 nM | 89.5 nM | – | – | – |
| ACAACAAGCUUUUUGUUCGUAGAACAUGAUGCUCUAGUCACAUGAGGAUCACCCAUGUCAGCCAGUUAGAUAGGUGA [JR_SV3TOV2_Sub064] (Eterna round: R96, puzzle: Sensor v3, turn-off variant 2) | – | – | – | 96.7 nM | 133 nM | 86 nM |
| ACAACAAGCUUUUUGUUCGUAGAACAUGAUGCUCUAGUCACAUGAGGAUCACCCAUGUCAGCCAGUUAGAUAGGUGA [JR_SV3TOV2_Sub064] (puzzle: Sensor v3, turn-off variant 2) | 75.2 nM | 133 nM | 81.1 nM | – | – | – |
| ACAAGCGAAAGGCUCGUCUUAUUUUUGUAGAGGUUCUAAACAUGAGGAUCACCCAUGUAGUGGCGAUGGUGGAGGUA [JR_SV3TOV2_Sub069] (puzzle: Sensor v3, turn-off variant 2) | 41.8 nM | 44.2 nM | 42.4 nM | – | – | – |
| ACAAGCUUGUAAUGACUUAACAUGAGGAUCACCCAUGUAAAUGGAAGAACCAACUUGAUAUGAUUUACUCGUCUUAU [JR_STOV1_Sub010] (Eterna round: R97, puzzle: Sensor, turn-off variant 1) | – | – | – | 1140 nM | – | 1030 nM |
| ACAAGCUUUUUCAUAUCUUACAUGAGGAUCACCCAUGUUUUUGCAAUUAUGUUUGGGCUCUUUUGAGCUCGUCUUAU [JR_STOV1_Sub048] (Eterna round: R97, puzzle: Sensor, turn-off variant 1) | – | – | – | 13.5 nM | – | 14.4 nM |
| ACAAGCUUUUUGCAUGUUAGUUUUGUUGCUUCGUAUGUAACAUGAGGAUCACCCAUGUAAGACUGAUGUCGUCGUUU [JR_SV3TOV2_Sub088] (puzzle: Sensor v3, turn-off variant 2) | 44.9 nM | 47.8 nM | 61.6 nM | – | – | – |
| ACAAGCUUUUUGCUCGUCUACAUGAGGAUCACCCAUGUAGUGAGAUAGUGGUGAAGAUAGAUUGAGCGUAGUAGGUA [JR_SV3TOV1_Sub071] (puzzle: Sensor v3, turn-off variant 1) | 26.9 nM | 51.7 nM | 21.5 nM | – | – | – |
| ACAAGCUUUUUGUUCGUCUUAUAAUAAUAAAUAAAUAUAACAUGAGGAUCACCCAUGUUGAGAAGACAGCCUCAUGU [Sesor Array 23 - Jieux - Sensor v3, turn-off variant 2] (puzzle: Sensor v3, turn-off variant 2) | 121 nM | 42.7 nM | 104 nM | – | – | – |
| ACACAGCGAGGAUAUACAUGAGGAUCACCCAUGUGGCGGCCGUUACGGUAGCACUAGUGUAGAAGGCGCAUUGG [EX3 #35] (Eterna round: R97, puzzle: Exclusion 3) | – | – | – | 155 nM | – | 192 nM |
| ACACGGAUAGGAUAUACUUGAGGAUCACCCAAGUGGAACCGCUUGUCCCGAUCCUAGAGUAGAAGGAUCAAAUA [Anusxebiat] (Eterna round: R97, puzzle: Exclusion 3) | – | – | – | 149 nM | – | 44.3 nM |
| ACAGCUAUAGGAUAUACAGCGAGGAAACUUAGUGGGAUCGGACAUGAGGAUCACCCAUGUAGAAGGAUAGACGG [Eternabot (L2) Solution 85] (Eterna round: R97, puzzle: Exclusion 2) | – | – | – | 149 nM | – | 97.6 nM |
| ACAGUCACAUGGGUACCAGACAUGAGGAUCACCCAUGUGACAGGUACUUUGUGGCGUCUUGUAUAAUUAAUAAUCAA [Sensor v2, turn off variant (Maaon - vinnie MOD7)] (Eterna round: R96, puzzle: Sensor v2, turn-off variant) | – | – | – | 9.97 nM | 14.3 nM | 13.4 nM |
| ACAGUUUUGCAAGGAUAUCGUUUUAGUUUAUUACGAGAAGGUGCUUAAGUAAUUUCUUUGGGUUGACAUGAGGAUCACCCAUGU [JR_ExcNG1_Sub058] (Eterna round: R96, puzzle: Exclusion NG 1) | – | – | – | 160 nM | 128 nM | 139 nM |
| ACAUGAAGAUAGGAUAUCCGCGAAAAUGGUCUAGGAGAAGGGUCUACAUGAGGAUCACCCAUGUAGCAGUGGAU [Eternabot (L1) Solution 79] (Eterna round: R97, puzzle: Exclusion 6) | – | – | – | 14.7 nM | – | 16.7 nM |
| ACAUGAGGAUCACCCAUGUACACGUAAUGGCUCAUGUAGAGUGAGGAUAUGUGAGACGAACGAGCACAGAAGGCACAAGACAGG [Deportation 10 - Jieux - Exclusion NG 3] (Eterna round: R96, puzzle: Exclusion NG 3) | – | – | – | 38.3 nM | 23.8 nM | 34.8 nM |

| Sequence | apparent KD of MS2 coat protein [1] | apparent KD of MS2 coat protein [2] | apparent KD of MS2 coat protein [3] | apparent KD of MS2 coat protein (input ligand: FMN 200 uM) | apparent KD of MS2 coat protein [4] | apparent KD of MS2 coat protein (input ligand: none) |
| --- | --- | --- | --- | --- | --- | --- |
| ACAUGAGGAUCACCCAUGUCAACGAAAAGGCUCAUGUAGAGUGAGGAUAUGUGAGACGAACGAGAACAGAAGGCACAAGACAGG [Deportation 3 - Jieux - Exclusion NG 3] (Eterna round: R96, puzzle: Exclusion NG 3) | – | – | – | 31.8 nM | 16.6 nM | 38.4 nM |
| ACAUGAGGAUCACCCAUGUCAGGCGGGUCCACUCCGGCUGUUGAGGAUAUAGUCCGGUAUCCGCGCUAGAAGGUGAGGGCCGGC [Aenatbe mod 24] (Eterna round: R96, puzzle: Exclusion NG 3) | – | – | – | 20.6 nM | 15.4 nM | 19.9 nM |
| ACAUGAGGAUCACCCAUGUCCGGCUGGUCCGUCUCGGCUGUCGAGGAUAUGGCUCGGUGUCCGCGCUAGAAGGCGGGAGCCGGA [Aenatbe mod 76] (Eterna round: R96, puzzle: Exclusion NG 3) | – | – | – | 31.6 nM | 27.2 nM | 45.4 nM |
| ACAUGAGGAUCACCCAUGUCCGUCUGGUCUGUCUCGGCUGUCGAGGAUAUAGCUCGGUAUCCGCGCUAGAAGGCGGGAGUCGGA [Aenatbe mod 94] (Eterna round: R96, puzzle: Exclusion NG 3) | – | – | – | 24.3 nM | 24.2 nM | 32.3 nM |
| ACAUGAGGAUCACCCAUGUCUGGCUGGUCUGCUCCGGCUGUUGAGGAUAUAGUCCGGUGUUCGCGCUAGAAGGUGAGGGCUGGA [Aenatbe mod 41] (Eterna round: R96, puzzle: Exclusion NG 3) | – | – | – | 107 nM | 49.5 nM | 77.3 nM |
| ACAUGAGGAUCACCCAUGUCUGGCUGGUCUGCUCCGGUUGUUGAGGAUAUAGUUCGGUGUUCGCGCUAGAAGGUGAGGGCUGGA [Aenatbe mod 39] (Eterna round: R96, puzzle: Exclusion NG 3) | – | – | – | 260 nM | 139 nM | 176 nM |
| ACAUGAGGAUCACCCAUGUGAAAACAAUGGCUGACACAGAGAUAGGAUAUAUGUGCAUAUCAAACAUAGAAGGGUCAUAACUGG [Deportation 85 - Jieux - Exclusion NG 3] (Eterna round: R96, puzzle: Exclusion NG 3) | – | – | – | – | 40.6 nM | – |
| ACAUGAGGAUCACCCAUGUUAUGUUGGGUACUAAAUUAUUCGUAGGAUAUCGUAGCUAGUUUGUGCGAGAAGGACGCAGUUUUU [JR_ExcNG3_Sub060] (Eterna round: R96, puzzle: Exclusion NG 3) | – | – | – | – | 202 nM | – |
| ACAUGAGGAUCACCCAUGUUAUGUUGGGUACUAAAUUAUUCGUAGGAUAUCGUAGCUAGUUUGUGCGAGAAGGACGCAUUUUUU [JR_ExcNG3_Sub059] (Eterna round: R96, puzzle: Exclusion NG 3) | – | – | – | 205 nM | 229 nM | 273 nM |
| ACAUGAGGAUCACCCAUGUUCGGCUGGUCCGUCUCGGCUGUCGAGGAUAUAGUUCGGUGUCCGCGCUAGAAGGCGGGAGCUGGC [Aenatbe mod 65] (Eterna round: R96, puzzle: Exclusion NG 3) | – | – | – | 34.1 nM | 29.4 nM | 42.6 nM |
| ACAUGAGGAUCACCCAUGUUUAUUGGGUACUAUACUAUCAGCAAGGAUAUGCAAAUUUUUUUUACGCAGAAGGUGCAGGAACCU [JR_ExcNG3_Sub070] (Eterna round: R96, puzzle: Exclusion NG 3) | – | – | – | – | 355 nM | – |
| ACAUGAGGAUCACCCAUGUUUGGCUGGUUUUCUCCGGCUGUCGAGGAUAUAGUACGGUAUCCGCGCUAGAAGGUGAGGGCCGGC [Aenatbe mod 1] (Eterna round: R96, puzzle: Exclusion NG 3) | – | – | – | 15.5 nM | 14.3 nM | 15.8 nM |
| ACAUGAGGAUCACCCAUGUUUUUUGGGUACUCUUGAUACAGCAAGGAUAUGCAUUAUUUAUGUACGCAGAAGGUGCAUUACGUC [JR_ExcNG3_Sub063] (Eterna round: R96, puzzle: Exclusion NG 3) | – | – | – | – | 837 nM | – |
| ACAUGAGGAUCACCCAUGUUUUUUGGGUACUCUUGUUUCUGCAAGGAUAUGCAUUAUUUAUGUACGCAGAAGGUGCAUUACGUC [JR_ExcNG3_Sub062] (Eterna round: R96, puzzle: Exclusion NG 3) | – | – | – | 696 nM | 692 nM | 962 nM |
| ACAUGUAUUGCAGGAUAUGGGACACAUGAGGAUCACCCAUGUGACUACAUGUCAUACCACGGGUCUCAGAAGGGUAUGUACAUG [Ex NG2 #40] (Eterna round: R96, puzzle: Exclusion NG 2) | – | – | – | 28.9 nM | 15.1 nM | 23 nM |
